Patent publication US20030077318A1

What was measured:
[1] = biological target: L^d on transfected Drosophila S2 (fly) cells with p2Ca peptide (mouse) (UniProt P01887); experiment: cell-based or functional assay
[2] = biological target: L^d on transfected Drosophila S2 (fly) cells with QL9 peptide (mouse) (UniProt P01887); experiment: cell-based or functional assay
[3] = biological target: recombinant biotinylated L^d immobilized on avidin-coated sheep red blood cells (mouse) (UniProt P01897); experiment: flow cytofluorometry of L^d on avidin-coated SRBC
Sequence of recombinant biotinylated L^d immobilized on avidin-coated sheep red blood cells (mouse) (P01897 25-362): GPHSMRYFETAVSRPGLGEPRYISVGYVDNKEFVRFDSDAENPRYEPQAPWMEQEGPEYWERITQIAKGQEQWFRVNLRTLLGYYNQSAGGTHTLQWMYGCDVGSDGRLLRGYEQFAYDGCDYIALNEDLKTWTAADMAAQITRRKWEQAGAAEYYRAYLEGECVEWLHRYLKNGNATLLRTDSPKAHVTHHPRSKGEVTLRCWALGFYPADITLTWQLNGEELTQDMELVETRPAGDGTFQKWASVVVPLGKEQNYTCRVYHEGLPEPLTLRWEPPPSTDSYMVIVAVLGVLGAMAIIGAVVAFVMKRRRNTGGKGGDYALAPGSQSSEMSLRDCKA

Sequence of L^d on transfected Drosophila S2 (fly) cells with p2Ca peptide (mouse) (P01897 25-362, chain 1 of 2): as the sequence (P01897 25-362) above
Sequence of L^d on transfected Drosophila S2 (fly) cells with p2Ca peptide (mouse) (P01887 21-119, chain 2 of 2): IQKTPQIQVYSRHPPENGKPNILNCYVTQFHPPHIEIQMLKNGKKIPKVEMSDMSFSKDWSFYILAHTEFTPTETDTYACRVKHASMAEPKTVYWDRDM
Sequence of L^d on transfected Drosophila S2 (fly) cells with QL9 peptide (mouse) (P01897 25-362, chain 1 of 2): as the sequence (P01897 25-362) above
Sequence of L^d on transfected Drosophila S2 (fly) cells with QL9 peptide (mouse) (P01887 21-119, chain 2 of 2): as the sequence (P01887 21-119, chain 2 of 2) above

**Q.** Which results are given for “2C T-cell receptor (TCR), on CD8+ lymph node T cells of 2C TCR transgenic mice”?
**A.** IL-2 Production (Day 2), ^3HTdR incorporation of CTLL; L^d + B7.1 cells combined with L^d ICAM-1 cells [1]: 300 cpm; IL-2 Production (Day 2), ^3HTdR incorporation of CTLL; fly cells expressing L^d [1]: 200 cpm; IL-2 Production (Day 2), ^3HTdR incorporation of CTLL; fly cells expressing L^d + B7.1 [1]: 200 cpm; IL-2 Production (Day 2), ^3HTdR incorporation of CTLL; fly cells expressing L^d + B7.1 + ICAM-1 [1]: 64600 cpm; IL-2 Production (Day 2), ^3HTdR incorporation of CTLL; fly cells expressing L^d + ICAM-1 [1]: 100 cpm; Proliferation (Day 3), ^3HTdR incorporation; L^d + B7.1 cells combined with L^d ICAM-1 cells [1]: 1500 cpm; Proliferation (Day 3), ^3HTdR incorporation; fly cells expressing L^d [1]: 200 cpm; Proliferation (Day 3), ^3HTdR incorporation; fly cells expressing L^d + B7.1 [1]: 300 cpm; Proliferation (Day 3), ^3HTdR incorporation; fly cells expressing L^d + B7.1 + ICAM-1 [1]: 142000 cpm; Proliferation (Day 3), ^3HTdR incorporation; fly cells expressing L^d + ICAM-1 [1]: 1500 cpm; IL-2 Production (Day 2), ^3HTdR incorporation of CTLL; L^d + B7.1 cells combined with L^d ICAM-1 cells [2]: 500 cpm; IL-2 Production (Day 2), ^3HTdR incorporation of CTLL; fly cells expressing L^d [2]: 100 cpm; IL-2 Production (Day 2), ^3HTdR incorporation of CTLL; fly cells expressing L^d + B7.1 [2]: 400 cpm; IL-2 Production (Day 2), ^3HTdR incorporation of CTLL; fly cells expressing L^d + B7.1 + ICAM-1 [2]: 159000 cpm; IL-2 Production (Day 2), ^3HTdR incorporation of CTLL; fly cells expressing L^d + ICAM-1 [2]: 200 cpm; Proliferation (Day 3), ^3HTdR incorporation; L^d + B7.1 cells combined with L^d ICAM-1 cells [2]: 133000 cpm; Proliferation (Day 3), ^3HTdR incorporation; fly cells expressing L^d [2]: 200 cpm; Proliferation (Day 3), ^3HTdR incorporation; fly cells expressing L^d + B7.1 [2]: 60900 cpm; Proliferation (Day 3), ^3HTdR incorporation; fly cells expressing L^d + B7.1 + ICAM-1 [2]: 264000 cpm; Proliferation (Day 3), ^3HTdR incorporation; fly cells expressing L^d + ICAM-1 [2]: 73900 cpm

**Q.** How did the percent of cells labeled [3] turn out when monoclonal antibody 30.5.7 (anti-L^d) was run?
**A.** 99.8%
